# According to PMC7042354, “Distinct surfaces on Cdc5/PLK Polo-box domain orchestrate combinatorial substrate recognition during cell division” (Scientific Reports, 2020):
# Square brackets hold non-standard residues; d marks the D form. Ends that are not written are not given here. pS = N[C@@H](COP(=O)(O)O)C(=O)O
# T1: polo-box domain of Cdc5 (residues 418–705) (Saccharomyces cerevisiae, UniProt P32562 418-705)
# T1 construct: Cdc5, Polo-like kinase of Saccharomyces cerevisiae, residues 418-705 (polo-box domain with the preceding extension), subcloned in pPROEX HTa; Residues 418-459 disordered in the crystal; loop 594-601 possibly cleaved during crystallization of the apo form; also called Cdc5^PBD; PBD of Cdc5
# T1 sequence (looked up): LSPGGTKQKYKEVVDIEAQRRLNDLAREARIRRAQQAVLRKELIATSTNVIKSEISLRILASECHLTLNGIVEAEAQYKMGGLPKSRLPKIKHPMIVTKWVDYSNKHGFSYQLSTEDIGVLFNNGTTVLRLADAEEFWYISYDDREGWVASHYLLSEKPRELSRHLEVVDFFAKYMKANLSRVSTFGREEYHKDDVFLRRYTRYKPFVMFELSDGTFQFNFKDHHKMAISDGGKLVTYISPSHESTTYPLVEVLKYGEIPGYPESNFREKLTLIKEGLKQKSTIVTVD
# Key:
# cdc5-S630Q mutant = assay: Proliferation assay (spot dilution) of cdc5 mutants with DNA damaging agents; format: cell-based, Saccharomyces cerevisiae; conditions: 0.4 μM 4-NQO on YPAD, 23 °C, n = 5
# Description: All yeast strains used in this study were constructed in the W303 background and their relevant genotypes are summarized in (Supplemental Table 2). Standard conditions and procedures were used for yeast growth, sporulation and tetrad dissection. Growth of temperature-sensitive (ts) mutants in liquid media was performed at 23 °C (permissive temperature) and 37 °C (non-permissive temperature).
# The temperature-sensitive (ts) growth behavior of cdc5 mutants was monitored on solid YPAD medium at the following temperatures: 23, 30 and 37.5 °C. Their sensitivity to DNA replication inhibitors and DNA damaging agents was assessed at 23 °C on YPAD medium containing either 100 mM hydroxyurea (HU) or 0.4 μM 4-nitroquinoline N-oxide (4-NQO). In all cases, cultures of yeast strains were diluted fivefold and subsequently spotted on solid medium, using a starting OD600 of 0.2 in the first dilution. Yeast were allowed to grow for approximately 36–72 hours at the indicated temperatures prior to scanning plates. The experiment was repeated 5 times (n = 5).
# [1] = molecular target: T1, polo-box domain of Cdc5 (residues …); assay: crystal structure; Cdc5 polo-box domain (5 mg/mL) mixed with Dbf4 peptide at 1:10 protein:peptide, overnight at 4 °C; crystals in 20% PEG 3350, 200 mM sodium potassium tartrate, 10 mM trimethylamine hydrochloride; conditions: both partners purified
# [2] = molecular target: T2, polo-box domain of Cdc5 pre-incubated with the Dbf4 peptide (Cdc5-Dbf4) (Saccharomyces cerevisiae | S. cerevisiae, UniProt P32562 418-705); assay: saturation-transfer difference (STD) NMR and 1D 1H NMR chemical shifts; ternary sample: 20 µM Cdc5 with both Dbf4 and Spc72^P peptides (500 µM); 20 mM sodium phosphate pH 7.0, 200 mM NaCl, 20 mM EDTA, >99% D2O; 298 K; conditions: both partners purified
# T2 construct: Cdc5, Polo-like kinase of Saccharomyces cerevisiae, residues 418-705; Dbf4 of budding yeast, residues 73-96
# [3] = molecular target: T1, polo-box domain of Cdc5 (residues …); assay: ITC; Nano ITC; 30 µM protein in the chamber cell, 280 µM peptide in the syringe; storage buffer (50 mM TRIS-HCl pH 7.0, 200 mM NaCl, 1.4 mM 2-mercaptoethanol, 5% glycerol) with 20 mM EDTA pH 8.0; conditions: both partners purified
# [4] = molecular target: T1, polo-box domain of Cdc5 (residues …); assay: crystal structure; Cdc5 polo-box domain (5 mg/mL) mixed with Spc72^P at 1:15 protein:peptide, overnight at 4 °C; crystals in 100 mM Bis-TRIS pH 6.5, 25% PEG3350, 200 mM MgCl2, 100 mM CsCl; conditions: both partners purified
molecule,measurement,setting,value
"O=[N+]([O-])c1cc[n+]([O-])c2ccccc12 [4-NQO, 4-nitroquinoline 1-oxide]",growth of cdc5-S630Q mutant in presence of agent,cdc5-S630Q mutant; 36–72 h,very little or no growth
same,hypersensitivity of cdc5-S630Q mutant compared with smc5-6 cells,cdc5-S630Q mutant,comparable to that of cells defective in the Smc5-6 complex
"RARIERARSIEGAVQVSKGTG (Dbf4, regulatory subunit of the Dbf4-dependent kinase of budding yeast, residues 76-96; Peptide used for crystallization; also called Dbf4 peptide; source: synthetic peptide, bought: GenScript) [Dbf4-derived peptide (76-96) from the polo-interacting region of Dbf4]",binding result,[1],binds
"DKEEFLSLAQS[pS]PAGSQ (Spc72, spindle pole body protein of budding yeast; Peptide used for ITC and NMR; also called Scp72^P; Spc72^P peptide; source: synthetic peptide, bought: GenScript) [Spc72^P phosphorylated peptide (printed as 222-237)]",binding result,[2],binds
same,binding result,[3],binds
"EKKRARIERARSIEGAVQVSKGTG (Dbf4, regulatory subunit of the Dbf4-dependent kinase of budding yeast, residues 73-96; Peptide used for ITC and NMR; also called Dbf4 peptide; source: synthetic peptide, bought: GenScript) [Dbf4-derived peptide (73-96)]",Kd,[3],~500 nM
"SLAQS[pS]PAGSQ (Spc72, spindle pole body protein of budding yeast, residues 227-237; Peptide used for crystallization; also called Spc72^P phosphopeptide; source: synthetic peptide, bought: GenScript) [Spc72^P phosphorylated peptide (227-237) derived from the spindle-pole body protein Spc72]",binding result,[4],binds
